Measured values published in patent US20210269521A1 (L AND L BIOPHARMA, published 2021).
Read-outs that look alike come from different tables or passages of the source.

Columns and labels:
[1] = target: T1, human TIM-3 extracellular domain-human IgG1 Fc fusion protein (human, UniProt Q8TDQ0 22-199); experiment: ELISA
T1 construct: Made in house or bought (ACROBiosystems TM3-H5258); also called TIM-3-hFc; not shown: human IgG1 Fc

[2] = target: T2, human TIM-3 extracellular domain-his tag protein (human, UniProt Q8TDQ0 22-199); experiment: ELISA, human TIM-3-his
T2 construct: Made in house or bought (ACROBiosystems TM3-H5229); also called TIM-3-his; Human Tim3-his; not shown: his tag

[3] = target: T1, human TIM-3 extracellular domain-human …; experiment: ELISA; remark: listed apart in the source
Protocol: Goat-anti-hFc (Jackson, 109-005-008) was diluted to a concentration of 1 μg/ml with PBS buffer (pH 7.4) and added to a 96-well microplate (Corning, CLS3590-100EA) at a volume of 50 μl/well, then incubated in an incubator at 37° C. for 2 hours (Or the antigen TIM-3 was directly used to coat the microplate with a concentration of 0.5 μg/ml, and then the antibody to be tested was directly added). After discarding the liquid, a blocking solution of 5% skimmed milk (skimmed milk powder purchased from Bright) diluted with PBS was added at 200 μl per well, and the microplate was incubated for 2.5 hours at 37° C. or overnight (16-18 hours) at 4° C. for blocking. The blocking solution was discarded, and the microplate was washed 5 times with PBST buffer (PBS with pH 7.4 containing 0.05% tween-20), then 50 μl/well of 0.5 μg/ml TIM-3-hFc (Example 1) was added and incubated for 2 hours in a 37° C. incubator. After incubation, the microplate was washed 6 times with PB ST. 50 μl/well of supernatant (containing testing antibody) or different concentrations of the antibody to be tested was added, and the microplate was incubated at 37° C. for 2 hours and washed 5 times with PBST. 50 μl/well of 1:2500 diluted HRP-labeled secondary antibody (Jackson Immuno Research, 115-035-003) was added to the microplate, incubating at 37° C. for 1 hour. After washing the microplate 5 times with PBST, 50 μl/well TMB chromogenic substrate (KPL, 52-00-03) was added to the microplate, followed by incubating at room temperature for 10-15 min.
(§1) The above-mentioned TIM-3 and PD-1 bispecific antibodies of the present invention were optimized and designed using the methods of Example 2 and Example 5, and their affinity for TIM-3 and PD-1 were tested respectively.

[4] = target: T2, human TIM-3 extracellular domain-his …; experiment: SPR Biacore, antibody captured on Protein A, TIM-3-his in flow
Protocol: First, Protein A (Thermo Pierce, Cat #21181) was conjugated to the biosensing chip CMS (Cat. #BR-1005-30, GE), and the chip was activated with the newly prepared 50 mM NHS (N-hydroxysuccinimide) and 200 mM EDC [1-ethyl-3-(3-dimethylaminopropyl) carbodiimide hydrochloride], then 10 μg/ml Protein A prepared with 10 mM NaAC (pH 4.0) was injected. […] The flow rate was 30 μl/min, the binding time was 180 seconds and the dissociation time is 300 seconds. Subsequently, the chip was washed for 30s with 10 mM Glycine-HCl (pH 1.5) at 30 μl/min. The data were fitted with a 1:1 Langmuir model using the software of Biacore T200 evaluation version 3.0 (GE), and the affinity value KD was obtained.

[5] = target: T1, human TIM-3 extracellular domain-human …; experiment: ELISA; remark: listed apart in the source
[6] = target: T1, human TIM-3 extracellular domain-human …; experiment: ELISA on human TIM-3, OD450 against Log[nM] of antibody
[7] = target: T3, human PD-1 extracellular domain protein expressed in Example 1 (tag not stated) (human, UniProt Q15116 25-170); experiment: ELISA, PD-1 coated
T3 construct: extracellular domain; also called PD-1 protein; not shown: human IgG1 Fc or his tag
Protocol: (§2) PD-1 expressed in Example 1 was diluted to a concentration of 1 μg/ml with PBS buffer, pH 7.4, and added to a 96-well microplate (Corning, CLS3590-100EA) at 50 μl per well, thereby incubating in an incubator at 37° C. for 2 hours. After discarding the liquid, a blocking solution of 5% skimmed milk (Shanghai Shenggong Biological Engineering Co., Ltd., A600669-0250) diluted with PBS was added at 200 μl per well, followed by incubating at 37° C. for 3 hours or 4° C. overnight (16-18 hours)) for blocking. Subsequently, the blocking solution was discarded, and the microplate was washed 5 times with PBST buffer (pH 7.4 PBS containing 0.05% tween-20). […] Subsequently, the microplate was washed 5 times with PBST, then 50 μl/well of 1:2500 diluted HRP-labeled secondary antibody (Jackson Immuno Research, 115-035-003) was added, thereby incubating at 37° C. for 1 hour. After washing the microplate 5 times with PBST, 50 μl/well TMB chromogenic substrate (KPL, 52-00-03) was added, then incubated at room temperature for 5-10 min. Finally, 50 μl/well of 1M H₂SO₄ was added to stop the reaction. […] Go microplate reader (ThermoFisher, 51119200) was used to read the absorption value at 450 nm and the EC50 based on the OD value was calculated.
The TIM-3 and PD-1 bispecific antibodies of the present invention were tested for their affinity for TIM-3 and PD-1 using the methods in Example 3 and Example 5, respectively.

Marmoset TIM-3 = target: T4, Marmoset TIM-3 (Marmoset, UniProt F7I881 21-290); experiment: ELISA
T4 sequence: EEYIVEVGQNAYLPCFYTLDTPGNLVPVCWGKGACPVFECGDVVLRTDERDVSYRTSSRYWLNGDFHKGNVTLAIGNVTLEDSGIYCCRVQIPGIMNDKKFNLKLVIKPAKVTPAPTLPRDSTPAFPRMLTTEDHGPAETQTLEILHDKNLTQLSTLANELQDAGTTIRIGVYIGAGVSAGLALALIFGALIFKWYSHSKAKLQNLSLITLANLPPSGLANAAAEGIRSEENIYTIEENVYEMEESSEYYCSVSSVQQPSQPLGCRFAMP

[8] = target: T3, human PD-1 extracellular domain protein …; experiment: blocking ELISA, PD-1 coated, competitor biotin-labeled PD-L1
[9] = target: T3, human PD-1 extracellular domain protein …; experiment: ELISA, PD-1 coated; remark: listed apart in the source
Protocol: as §2, §1

B1: humanized anti-TIM-3 antibody ab6 (antibody, IgG4, V domains shown)
VH: EVQLVESGGGLVKPGGSLRLSCAASGFTFSDYYMAWVRQAPGKGLEWVANINYDGSNTYYLDSLKSRFTISRDNAKNSLYLQMNSLRAEDTAVYYCARGLYYYGGNYFAYWGQGTLVTVSS
VL: DIQMTQSPSSLSASVGDRVTITCHASQGISSNIGWLQQKPGKAFKGLIYQGSNLEDGVPSRFSGSGSGADYTLTISSLQPEDFATYYCVQFAQFPPTFGQGTKLEIK
notes: also called ab6 intact antibody
[1]
  EC50: 84 pM
[2]
  EC50: 110 pM
[3]
  EC50: 87 pM
[4]
  Kd: 2830 pM
  koff: 0.00235 s⁻¹
  kon: 834000 M⁻¹ s⁻¹
[5]
  EC50: 95 pM

B2: humanized anti-TIM-3 antibody ab32 (antibody, IgG4, V domains shown)
VH: EVQLVESGGGLVKPGGSLRLSCAASGFTFSDYYMTWVRQAPGKGLEWVSSINYDGRNTYYLDSLKSRFTISRDNAKNSLYLQMNSLRAEDTAVYYCARGYYYYGSSPNYFDYWGQGTLVTVSS
VL: DIQMTQSPSSLSASVGDRVTITCRASENIYSYLTWYQQKPGKAPKLLIYNAKTLAEGVPSRFSGSGSGTDFTLTISSLQPEDFATYYCQQHYGTPLTFGQGTKLEIK
notes: also called ab32 intact antibody
[1]
  EC50: 90 pM
[6]
  EC50 (read off the curve): ~200 pM
[3]
  EC50: 36 pM
[4]
  Kd: 1180 pM
  koff: 0.000296 s⁻¹
  kon: 251000 M⁻¹ s⁻¹

B3: bispecific antibody LB129 (bispecific antibody, human IgG4 S228P, kappa)
light: DIQMTQSPSSLSASVGDRVTITCRASENIYSYLTWYQQKPGKAPKLLIYNAKTLAEGVPSRFSGSGSGTDFTLTISSLQPEDFATYYCQQHYGTPLTFGQGTKLEIKRTVAAPSVFIFPPEIVLTQSPATLSLSPGERATISCRASKGVSTSGYSYLHWYQQKPGQAPRLLIYLASYLESGVPARFSGSGSGTDFTLTISSLEPEDFATYYCQHSRELPLTFGTGTKVEIKRTVAAPSVFIFPPSDEQLKSGTASVVCLLNNFYPREAKVQWKVDNALQSGNSQESVTEQDSKDSTYSLSSTLTLSKADYEKHKVYACEVTHQGLSSPVTKSFNRGEC
heavy: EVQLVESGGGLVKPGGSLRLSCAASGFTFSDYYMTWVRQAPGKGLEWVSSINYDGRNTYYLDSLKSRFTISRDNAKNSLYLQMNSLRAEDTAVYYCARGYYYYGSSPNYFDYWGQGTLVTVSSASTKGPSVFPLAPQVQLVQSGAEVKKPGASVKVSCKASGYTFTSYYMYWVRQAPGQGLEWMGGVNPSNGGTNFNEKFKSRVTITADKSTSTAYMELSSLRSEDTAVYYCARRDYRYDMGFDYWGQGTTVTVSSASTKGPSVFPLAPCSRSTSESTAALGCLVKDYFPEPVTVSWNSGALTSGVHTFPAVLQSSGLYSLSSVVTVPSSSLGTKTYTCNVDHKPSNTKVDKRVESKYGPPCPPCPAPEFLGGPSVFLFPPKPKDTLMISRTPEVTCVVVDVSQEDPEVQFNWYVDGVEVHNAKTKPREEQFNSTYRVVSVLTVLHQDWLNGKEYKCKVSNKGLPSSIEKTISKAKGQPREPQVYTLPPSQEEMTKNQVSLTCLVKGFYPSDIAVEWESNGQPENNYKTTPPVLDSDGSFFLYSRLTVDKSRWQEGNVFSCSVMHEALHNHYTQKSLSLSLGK
[7]
  EC50: 508 pM
[5]
  EC50: 558 pM

B4: Tim3-0028 (antibody of US20170114135A1) (antibody, V domains shown)
VH: EVQLQQSVAELVRPGASVKLSCTASGFNIKTTYMHWVKQRPEQGLEWIGRIDPADDNTKYAPKFQGKATITADTSSNTAYLQLSSLTSEDAAIYYCVRDFGYVAWFAYWGQGTLVTFSA
VL: NIVMTPTPKFLPVSSGDRVTMTCRASQSVDNYVAWYQQKPGQSPKLLIYYASNRYIGVPDRFTGSGSGTDFTFTISSVQVEDLAVYFCQQHYSSPYTFGSGTKLEIK
Marmoset TIM-3
  EC50: 36200 pM

B5: bispecific antibody LB135 (bispecific antibody, human IgG4 S228P, kappa)
light: EIVLTQSPATLSLSPGERATISCRASKGVSTSGYSYLHWYQQKPGQAPRLLIYLASYLESGVPARFSGSGSGTDFTLTISSLEPEDFATYYCQHSRELPLTFGTGTKVEIKRTVAAPSVFIFPPSDEQLKSGTASVVCLLNNFYPREAKVQWKVDNALQSGNSQESVTEQDSKDSTYSLSSTLTLSKADYEKHKVYACEVTHQGLSSPVTKSFNRGEC
heavy: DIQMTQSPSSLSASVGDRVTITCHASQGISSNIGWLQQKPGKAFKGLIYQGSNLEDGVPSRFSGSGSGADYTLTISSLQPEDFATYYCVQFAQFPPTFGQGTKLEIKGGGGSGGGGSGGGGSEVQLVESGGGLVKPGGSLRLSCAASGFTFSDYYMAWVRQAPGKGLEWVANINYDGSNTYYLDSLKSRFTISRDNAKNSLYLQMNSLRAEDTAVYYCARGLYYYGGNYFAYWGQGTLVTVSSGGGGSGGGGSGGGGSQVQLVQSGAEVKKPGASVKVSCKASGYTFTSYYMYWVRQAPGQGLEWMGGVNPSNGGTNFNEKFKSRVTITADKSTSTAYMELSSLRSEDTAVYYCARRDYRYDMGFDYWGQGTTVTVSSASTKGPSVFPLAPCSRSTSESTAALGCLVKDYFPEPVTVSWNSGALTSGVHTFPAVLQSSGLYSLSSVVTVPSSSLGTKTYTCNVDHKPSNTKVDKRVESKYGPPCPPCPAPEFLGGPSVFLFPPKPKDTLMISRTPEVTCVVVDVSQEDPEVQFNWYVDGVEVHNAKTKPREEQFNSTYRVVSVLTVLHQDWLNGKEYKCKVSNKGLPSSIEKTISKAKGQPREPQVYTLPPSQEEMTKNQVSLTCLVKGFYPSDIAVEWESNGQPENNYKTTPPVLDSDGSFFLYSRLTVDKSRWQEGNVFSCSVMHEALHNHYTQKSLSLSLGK
notes: ab6VL-(G4S)3-ab6VH-(G4S)3-Ba08VH-hIgG4 with Ba08VL-κ
[8]
  IC50: 1490 pM
[3]
  EC50: 145 pM
[9]
  EC50: 82 pM

B6: bispecific antibody LB143 (bispecific antibody, human IgG4 S228P, kappa)
light: EIVLTQSPATLSLSPGERATLSCRASKGVSTSGYSYLHWYQQKPGQAPRLLIYLASYLESGVPARFSGSGSGTDFTLTISSLEPEDFAVYYCQHSRDLPLTFGGGTKVEIKRTVAAPSVFIFPPSDEQLKSGTASVVCLLNNFYPREAKVQWKVDNALQSGNSQESVTEQDSKDSTYSLSSTLTLSKADYEKHKVYACEVTHQGLSSPVTKSFNRGEC
heavy: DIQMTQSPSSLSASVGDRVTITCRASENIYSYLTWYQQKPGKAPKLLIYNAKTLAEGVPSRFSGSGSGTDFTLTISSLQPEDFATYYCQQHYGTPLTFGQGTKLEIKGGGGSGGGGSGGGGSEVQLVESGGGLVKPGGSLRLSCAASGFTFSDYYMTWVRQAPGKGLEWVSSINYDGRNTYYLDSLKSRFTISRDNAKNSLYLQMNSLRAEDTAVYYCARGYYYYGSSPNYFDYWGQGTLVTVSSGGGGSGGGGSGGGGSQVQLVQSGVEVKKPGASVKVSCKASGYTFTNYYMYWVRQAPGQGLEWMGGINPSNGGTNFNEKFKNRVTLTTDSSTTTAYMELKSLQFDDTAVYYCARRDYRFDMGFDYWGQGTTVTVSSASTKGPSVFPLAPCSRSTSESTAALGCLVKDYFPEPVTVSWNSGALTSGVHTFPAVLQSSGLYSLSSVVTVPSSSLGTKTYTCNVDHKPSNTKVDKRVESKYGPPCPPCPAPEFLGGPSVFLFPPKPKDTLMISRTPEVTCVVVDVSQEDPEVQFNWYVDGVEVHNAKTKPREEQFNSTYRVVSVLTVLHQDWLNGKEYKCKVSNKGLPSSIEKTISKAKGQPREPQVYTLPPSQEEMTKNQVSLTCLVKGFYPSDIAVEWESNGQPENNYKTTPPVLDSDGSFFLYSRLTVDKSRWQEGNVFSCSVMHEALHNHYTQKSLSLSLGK
notes: ab32VL-(G4S)3-ab32VH-(G4S)3-PemVH-hIgG4 with PemVL-κ
[8]
  IC50: 1880 pM
[3]
  EC50: 140 pM
[9]
  EC50: 64 pM

B7: bispecific antibody LB136 (bispecific antibody, human IgG4 S228P, kappa)
light: EIVLTQSPATLSLSPGERATISCRASKGVSTSGYSYLHWYQQKPGQAPRLLIYLASYLESGVPARFSGSGSGTDFTLTISSLEPEDFATYYCQHSRELPLTFGTGTKVEIKRTVAAPSVFIFPPSDEQLKSGTASVVCLLNNFYPREAKVQWKVDNALQSGNSQESVTEQDSKDSTYSLSSTLTLSKADYEKHKVYACEVTHQGLSSPVTKSFNRGEC
heavy: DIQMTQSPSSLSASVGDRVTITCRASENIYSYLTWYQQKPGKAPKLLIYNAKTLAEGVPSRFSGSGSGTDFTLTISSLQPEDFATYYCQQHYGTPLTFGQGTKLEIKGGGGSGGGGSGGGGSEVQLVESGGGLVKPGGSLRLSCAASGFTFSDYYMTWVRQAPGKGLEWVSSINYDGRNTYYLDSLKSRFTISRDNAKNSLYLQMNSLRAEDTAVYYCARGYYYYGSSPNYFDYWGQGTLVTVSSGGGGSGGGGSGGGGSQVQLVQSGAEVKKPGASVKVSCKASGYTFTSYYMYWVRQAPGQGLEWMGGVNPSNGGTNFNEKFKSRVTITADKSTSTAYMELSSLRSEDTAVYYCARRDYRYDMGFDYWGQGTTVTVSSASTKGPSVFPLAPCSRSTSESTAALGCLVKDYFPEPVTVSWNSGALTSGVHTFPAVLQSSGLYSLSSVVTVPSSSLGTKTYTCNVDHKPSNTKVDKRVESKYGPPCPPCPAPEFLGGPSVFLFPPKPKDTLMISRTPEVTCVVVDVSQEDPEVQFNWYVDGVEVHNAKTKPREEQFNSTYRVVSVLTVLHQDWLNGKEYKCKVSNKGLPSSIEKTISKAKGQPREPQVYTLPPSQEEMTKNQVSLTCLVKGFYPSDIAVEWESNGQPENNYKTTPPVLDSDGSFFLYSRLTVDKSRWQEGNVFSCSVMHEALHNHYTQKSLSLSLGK
notes: ab32VL-(G4S)3-ab32VH-(G4S)3-Ba08VH-hIgG4 with Ba08VL-κ
[8]
  IC50: 1000 pM
[3]
  EC50: 178 pM
[9]
  EC50: 65 pM
